Literature values, collected in PMC3784502.
pKd: −log10 of the molar value.

Target: APC 15-aa repeat region (Homo sapiens) (UniProt P25054)
Chain of UniProt P25054 (P25054 1020-1169): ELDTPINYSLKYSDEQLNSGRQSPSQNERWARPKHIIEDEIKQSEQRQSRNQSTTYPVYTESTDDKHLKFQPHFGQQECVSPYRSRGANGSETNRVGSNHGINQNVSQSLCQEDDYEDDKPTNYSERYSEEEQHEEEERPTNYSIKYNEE

pKd: 6.56
Substance: β-catenin ARM repeats 5-9 (from UniProt P35222)
